Test results reported in US20030091594A1 (University of Pennsylvania, published 2003).

Experiments:
[1] = biological target: T1, HIV-1/IIIB (HXBc2) gp120 pre-incubated with soluble CD4 (HIV-1); test: cell-surface binding of 125I-gp120 with sCD4 to 293T cells transfected with CCR5
T1 construct: also called HXB/CD4; HIXB/CD4

[2] = biological target: T1, HIV-1/IIIB (HXBc2) gp120 pre-incubated …; test: 125I-gp120 binding to transfected 293T cells, with sCD4

Binder	binding result [1]	binding result [2]
human CCR5 (receptor, whole, on cells) not shown	no binding	
human CXCR4 (receptor, whole, on cells) MEGISIYTSDNYTEEMGSGDYDSMKEPCFREENANFNKIFLPTIYSIIFLTGIVGNGLVILVMGYQKKLRSMTDKYRLHLSVADLLFVITLPFWAVDAVANWYFGNFLCKAVHVIYTVNLYSSVLILAFISLDRYLAIVHATNSQRPRKLLAEKVVYVGVWIPALLLTIPDFIFANVSEADDRYICDRFYPNDLWVVVFQFQHIMVGLILPGIVILSCYCIIISKLSHSKGHQKRKALKTTVILILAFFACWLPYYIGISIDSFILLEIIKQGCEFENTVHKWISITEALAFFHCCLNPILYAFLGAKFKTSAQHALTSVSRGSSLKILSKGKRGGHSSVSTESESSSFHSS		binds
